According to patent publication US20220290200A1, “GENETICALLY MODIFIED HOST CELLS PRODUCING GLYCOSYLATED CANNABINOIDS” (OCTARINE BIO IVS, priority 2019, published 2022):

Tests used:
[1] = In vivo bioconversion of cannabinoid substrate to glycoside in E. coli expressing glycosyl transferases; format: cell-based
Description: The Sr76G1 expression plasmid (PL-55(Sr76G1_GA (SEQ ID NO:123,124)) was also included (resulting in E. coli strain EC-55) to test whether the absence of activity observed in vitro was also observed in vivo. Strains were subsequently incubated overnight in 5 mL of LB media supplemented with ampicillin in 10 mL pre-culture tubes at 37° C. Subsequently, cells were inoculated to a starting OD600 of 0.1 in 500 μL of LB media supplemented with ampicillin in a 96 deep-well plate and incubated at 30° C. for 6 hours. A cannabinoid substrate was then dissolved in ethanol and added to the culture media along with a suitable inducing agent (IPTG) in the following final concentrations:
Cannabinoid substrate: 250 μM
Cells were cultivated with the added ethanol, cannabinoid substrate and IPTG for a further 66 hours. Cannabinoid glycosides were extracted and analyzed by HPLC analysis as described above. The decrease in cannabinoid concentration and accumulation of cannabinoid glycosides were quantified and percent conversion calculated for each glycoside. As shown in table 51 below E. coli strains expressing glycosyl transferases could convert a range of cannabinoids into their corresponding glycosides.

[2] = In vitro glycosyl transferase performance, purified enzymes, % conversion of cannabinoids to cannabinoid glycosides; format: biochemical
Description: For in vitro studies of glycosyl transferase performance in glycosylating cannabinoids, purified Glycosyl transferases were prepared as follows:
5 mL of 2× concentrated LB medium+Ampicillin (50 μg/m L) was inoculated with E. coli XJb (DE3) strains expressing a glycosyl transferase of interest and incubated overnight at 30° C. with shaking. The following day, cell cultures were transferred into 500 mL of 2× concentrated LB medium+Ampicillin (50 μg/mL) and incubated overnight at 30° C. with shaking. The following day, the cell cultures were transferred to 1 L of 2× concentrated LB medium+Ampicillin (50 μg/mL)+3 mM arabinose+0.1 mM IPTG. Cells were incubated for 24 h at 20° C. with shaking. The following day, the cells were collected by centrifugation at 46500×g for 10 mins at 4° C. Cells were resuspended in 20 mL ice-cold GT buffer (50 mM Tris-HCl pH7.4+1 mM phenylmethanesulfonyl fluoride+1 cOmplete™, mini, EDTA-free Protease Inhibitor Cocktail tablet (Roche)). The resuspended material was transferred to a 50 mL falcon tube and kept at −80° C. for at least 15 mins. Falcon tubes were then thawed at room temperature, as the tubes were thawing the following reagents were added; 2.6 mM MgCl2, 1 mM CaCl2, 250 μL of a 1.4 mg/ml DNase solution (Sigma) dissolved in MilliQ water. Tubes were gently inverted to mix then were incubated for 5 mins at 37° C. Binding buffer was then added to the tubes (50 mM Tris-HCl pH7.4, 10 mM imidazole, 500 mM NaCl. 11.25 mL MilliQ water) and the pH adjusted to 7.4 with HCl. The mix was centrifuged at 15550×g for 15 mins at 4° C., the supernatant transferred to a fresh 50 mL falcon tubes and centrifuged again to remove any remaining cellular debris at 48400×g for 20 minutes at 4° C. While the enzyme prep was centrifuging, 3 mL of HIS-Select (available from Sigma P6611) column material was added to a fresh 50 mL tube and washed by adding MilliQ water up to 50 mL, centrifuging at 2000×g for 2 mins and discarding the supernatant. This washing step was repeated. Finally, MilliQ water was added to the HIS-Select material to an approximate 50% volume. Collected supernatant from the centrifuged enzyme preparation was transferred to the tube containing the HIS-Select material through a Miracloth (available from Merck Millipore), and then incubated at 4° C. with gently shaking by inversion for 2 h. After 2 h the mix was centrifuged at 2000×g for 4 minutes at 4° C. and the supernatant discarded. The remaining HIS-Select material was washed twice with 1× binding buffer (50 mM Tris-HCl, 0.5M NaCl, 10 mM Imidazole, pH 7.4) with centrifugation at 2000×g for 4 minutes at 4° C. The HIS-Select material was resuspended in 5 mL 1× binding buffer and transferred to a Poly-Prep®Chromatography Column (available from BioRad, 7311550). The HIS-Select material was kept at 4° C. and washed twice with 1× binding buffer by filling up the column and allowing it to drip through. Finally, purified Glycosyl transferases were eluted from the HIS-Select material by adding 7.5 mL of elution buffer (50 mM Tris-HCl, 500 mM Imidazole, pH7.4) and collecting the flow through. Enzymes were used immediately in in vitro enzyme assays or stored at −20° C. in 50% glycerol until needed.
In vitro conversion of various cannabinoids to cannabinoid glycosides was carried out according to table 21. Alkaline phosphatase was provided by New England Biolabs (M0371S). Cannabinoids were dissolved in methanol. The UDP-sugar (e.g. UDP-glucose) was provided by a commercial supplier (e.g. Sigma) or produced by in vitro enzymatic conversion from a commercially available UDP-sugar as shown in Example 21.
The reaction mixture was scaled up or down as required. The reaction mixture was incubated without shaking at 30° C. for 24 hours. Extraction and analysis were performed as described above for this example. […]

[3] = In vitro conversion of CBD with combined glycosyl transferases (sugar-sugar linkages); format: biochemical
Text: The glycosyl transferases described herein can broadly be grouped into either glycosyl transferases active on the cannabinoid aglycones or glycosyl transferases active on cannabinoid glycosides. The latter group, instead of attaching a sugar moiety onto a free hydroxy group on the cannabinoid molecule, attaches a sugar moiety onto the sugar group of the cannabinoid glycoside. In Example 13 a range of glycosyl transferases were discovered that were active only on cannabinoid aglycones (e.g. PL-159(Pt88G_GA) (SEQ ID NO: 147, 148)) as well a range of glycosyl transferases which were active on both cannabinoid aglycones and cannabinoid glycosides. […] Two of these enzymes (PL-55(Sr76G1_GA) (SEQ ID NO: 123, 124) and PL-32(OsEUGT11_GA) (SEQ ID NO: 115, 116)) are described in prior art and are well known to catalyze a range of sugar on sugar reactions and were recently described as being able to perform sugar on sugar reactions on cannabinoid glycosides. […] In vitro assays were performed and analyzed as described previously. […] By comparing the LC-MS/QTOF retention time, measured mass and fragmentation pattern as well as the c Log P it could be elucidated that Sr76G1, OsEUGT11 and Si94D were catalysing sugar on sugar reactions with different linkages. […]

B1: Sr76G1: glycosyl transferase isolated from S. rebaudiana, SEQ ID NO: 123, 124, described in prior art (protein)
chain: MDQMAKIDEKKPHVVFIPFPAQSHIKCMLKLARILHQKGLYITFINTDTNHERLVASGGTQWLENAPGFWFKTVPDGFGSAKDDGVKPTDALRELMDYLKTNFFDLFLDLVLKLEVPATCIICDGCMTFANTIRAAEKLNIPVILFWTMAACGFMAFYQAKVLKEKEIVPVKDETYLTNGYLDMEIDWIPGMKRIRLRDLPEFILATKQNYFAFEFLFETAQLADKVSHMIIHTFEELEASLVSEIKSIFPNVYTIGPLQLLLNKITQKETNNDSYSLWKEEPECVEWLNSKEPNSVVYVNFGSLAVMSLQDLVEFGWGLVNSNHYFLWIIRANLIDGKPAVMPQELKEAMNEKGFVGSWCSQEEVLNHPAVGGFLTHCGWGSIIESLSAGVPMLGWPSIGDQRANCRQMCKEWEVGMEIGKNVKRDEVEKLVRMLMEGLEGERMRKKALEWKKSATLATCCNGSSSLDVEKLANEIKKLSRN
For B1, the “glycosyl transferase activity in vivo” value ([1]; E. coli strain EC-55) was “lack of activity” and the “glycosyltransferase activity using cannabinoid aglycones as substrate” value ([2]; any cannabinoid aglycone) was “no glycosyltransferase activity was detected”.

B2: Si94D: glycosyl transferase active on cannabinoid glycosides, SEQ ID NO: 145, 146 (protein)
chain: MDTRKRSIRILMFPWLAHGHISAFLELAKSLAKRNFVIYICSSQVNLNSISKNMSSKDSISVKLVELHIPTTILPPPYHTTNGLPPHLMSTLKRALDSARPAFSTLLQTLKPDLVLYDFLQSWASEEAESQNIPAMVFLSTGAAAISFIMYHWFETRPEEYPFPAIYFREHEYDNFCRFKSSDSGTSDQLRVSDCVKRSHDLVLIKTFRELEGQYVDFLSDLTRKRFVPVGPLVQEVGCDMENEGNDIIEWLDGKDRRSTVFSSFGSEYFLSANEIEEIAYGLELSGLNFIWVVRFPHGDEKIKIEEKLPEGFLERVEGRGLVVEGWAQQRRILSHPSVGGFLSHCGWSSVMEGVYSGVPIIAVPMHLDQPFNARLVEAVGFGEEVVRSRQGNLDRGEVARVVKKLVMGKSGEGLRRRVEELSEKMREKGEEEIDSLVEELVTVVRRRERSNLKSENSMKKLNVMMMENREGMLSENA
With B2 the “efficiency of 1-6 glucose-glucose linkage (gentiobioside) formation” value ([3]; combined with Pt88G, CBD and UDP-glucose as substrates) was 100%.

B3: Cs73Y: glycosyl transferase, SEQ ID NO: 157 (207 for the yeast codon-optimized gene) (protein)
chain: MGSEGRQLHIFMFPFMAHGHMIPIVDMAKLFASRGIKITIVTTPLNSISISKSLHNCSPNSLIQLLILKFPAAEAGLPDGCENADSIPSMDLLPKFFEAVSLLQPPFEEALHNNRPDCLISDMFFPWTNDVADRVGIPRLIFHGTSCFSLCSSEFMRLHKPYQHVSSDTEPFTIPYLPGDIKLTKMKLPIFVRENSENEFSKFITKVKESESFCYGVVVNSFYELEAEYVDCYKDVLGRKTWTIGPLSLTNTKTQEITLRGRESAIDEHECLKWLDSQKPNSVVYVCFGSLAKFNSAQLKEIAIGLEASGKKFIWVVRKGKGEEEEEEQNWLPEGYEERMEGTGLIIRGWAPQVLILDHPSVGGFVTHCGWNSTLEGVAAGVPMVTWPVGAEQFYNEKLVTEVLKTGVGVGVQKWAPGVGDFIESEAVEKAIRRIMEKEGEEMRNRAIELGKKAKWAVGEEGSSYSNLDALIEELKSLAF
With B3 the “conversion of fed cannabinoid to cannabinoid glycoside in vivo” value ([1]; E. coli, 250 μM CBN fed, to OB23) was 100%.

B4: PL-159(Pt88G_GA) (protein)
chain: MEDTIVLYPSPGRGHLFSMVELGKQILEHHPSISITIIISAMPTESISIDDPYFSTLCNTNPSITLIHLPQVSLPPNTSFSPLDFVASFFELPELNNTNLHQTLLNLSKSSNIKAFIIDFFCSAAFEFVSSRHNIPIYFFYTTCASGLSMFLHLPILDKIITKSLKDLDIIIDLPGIPKIPSKELPPAISDRSHRVYQYLVDTAKLMIKSAGLIINTFELLERKALQAIQEGKCGAPDEPVPPLFCVGPLLTTSESKSEHECLTWLDSQPTRSVLFLCFGSMGVFNSRQLRETAIGLEKSGVRFLWVVRPPLADSQTQAGRSSTPNEPCLDLLLPEGFLERTKDRGFLVNSWAPQVEILNHGSVGGFVTHCGWNSVLEALCAGVPMVAWPLYAEQRMNRIFLVEEMKVALAFREAGDDHFVNAAELEERVIELMNSKKGEAVRERVLKLREDAVVAKSDGGSSCIAMAKLVDCFKKG
With B4 the “% conversion of CBD to OB1 (CBD-1′-O-β-D-glucoside)” value ([2]; glycosyl transferase in vitro, Table 24) was 97.4%, the “% conversion of CBD to OB13 (CBD-1′-O-α-L- rhamnoside)” value ([2]; glycosyl transferase in vitro, Table 25) was 2.0% and the “% conversion of CBD to OB9 (CBD-1′-O-β-D-xyloside)” value ([2]; glycosyl transferase in vitro, Table 26) was 12.4%. For the same molecule, the “% conversion of CBDV to OB24 (CBDV-1′-O-β-D-glucoside)” value ([2]; glycosyl transferase in vitro, Table 33) was 89.2%, the “% conversion of CBDA to OB31 (CBDA-1′-O-β-D-glucoside)” value ([2]; glycosyl transferase in vitro, Table 37) was 12.0% and the “% conversion, CBG to OB32 (CBG-1′-O-β-D-glucoside)” value ([2]; substrate CBG, product OB32, glycosyl transferase in vitro) was 51.9%. For the same molecule, the “amount of CBD converted to OB1 (CBD-1′-O-β-D-glucoside) expressed as a percentage” value ([3]; substrate CBD, in vitro) was 97.5%.
